According to the supplement of paper PMC12667976:

B1: library; numbered along this chain (parent)
chain: MATDAALRRLLRLHRTEIAVAVDSAFPLLHALADHDVVPEDKFQETLHLKEKEGCPQAFHALLSWLLTQDSTAILDFWRVLFKDYNLERYGRLQPILDSFPKDVDLSQPRKGRKPPAVPKALVPPPRLPTKRKASEEARAAAPAALTPRGTASPGSQLKAKPPKKPESSAEQQRLPLGNGIQTMSASVQRAVAMSSGDVPGARGAVEGILIQQVFESGGSKKCIQVGGEFYTPSKFEDSGSGKNKARSSSGPKPLVRAKGAQGAAPGGGEARLGQQGSVPAPLALPSDPQLHQKNEDECAVCRDGGELICCDGCPRAFHLACLSPPLREIPSGTWRCSSCLQATVQEVQPRAEEPRPQEPPVETPLPPGLRSAGEEVRGPPGEPLAGMDTTLVYKHLPAPPSAAPLPGLDSSALHPLLCVGPEGQQNLAPGARCGVCGDGTDVLRCTHCAAAFHWRCHFPAGTSRPGTGLRCRSCSGDVTPAPVEGVLAPSPARLAPGPAKDDTASHEPALHRDDLESLLSEHTFDGILQWAIQSMARPAAPFPS

Variants of: B1
Assay: AIRE transcriptional activation functional score (insulin promoter-GFP; nonsense median 0, synonymous median 1) (normalised score); higher = higher AIRE activity (more reporter activation)
Conditions: with insulin promoter-GFP reporter in HEK293
Method in brief: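 The functional score compares variant enrichment between select and non-select populations after subtracting wild type. To obtain it, codon-optimized AIRE NNN-codon libraries spanning three regions were placed by Bxb1 recombinase into Flp-In T-REx HEK293 landing-pad cells with an insulin core promoter-GFP reporter. Cells with the top 10% GFP and unselected integrants were tile-sequenced after mCherry+, BFP− integrants had been sorted at day 7 and grown 7 more days. Only variants with 10 counts per million in non-select were kept, rescaled to nonsense median 0 and synonymous median 1, and averaged across biological replicates.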

AIRE transcriptional activation functional score: each site, then its substitutions
T504: D 1.79 | F 0.918 | I 1.6 | E 0.961 | A 1.58 | S 1.44 | C 1.15 | Y 1.77 | V 0.558 | M 0.913 | N 0.713 | W 1.23 | R 0.922 | G 0.95 | K 0.99 | Q 1.7 | L 0.843
D502: M 0.261 | K 0.812 | F 1.35 | I 1.02 | A 0.926 | E 0.952 | Q 0.924 | T 0.991 | Y 1.33 | G 1.04 | N 0.775 | V 0.937 | L 0.916 | C 0.85 | W 1.04 | R 0.415 | H 1.15 | S 0.804 | P 0.765
H507: L 1.01 | T 0.361 | F 1.56 | S 0.954 | V 1.12 | Y 1.18 | M 1.47 | E 0.521 | A 0.96 | I 1.27 | R 0.823 | C 0.78 | N 1.19 | P 1.02 | Q 0.898 | K 0.802 | G 0.805 | D 0.604
R494: T 0.134 | A 0.321 | L 0.489 | W 1.41 | V 1.27 | P 0.439 | F 0.918 | Y 0.846 | S 0.361 | H 1.7 | K 0.735 | Q 0.696 | C 0.847 | M 0.56 | I 0.785 | G 0.344 | E 0.493
E508: I 0.786 | G 0.721 | K 0.0783 | A 0.896 | C 0.854 | F 0.724 | L 0.506 | M 0.536 | N 0.552
S506: W 0.477 | G 0.799 | K 0.443
